In the supplement of paper PMC10065799, “High-throughput profiling of sequence recognition by tyrosine kinases and SH2 domains using bacterial peptide display” (eLife, 2023) one finds SH2 binding enrichment and phosphorylation enrichment data, which are given here for 7 sequences.

One series has as its target SHP2-C SH2. In words: SH2 binding enrichment of the phosphorylated peptide, bacterial display (enrichment ratio); higher = better substrate or ligand; peptides without Tyr show the background.
The target in another series is c-Src SH2. The series is described as above.
The target in another series is Grb2 SH2 (UniProt P62993). The series is described as above.
In a further series the test system is AncSZ. The experiment in a line: phosphorylation enrichment, bacterial display (enrichment ratio); higher = better substrate or ligand; peptides without Tyr show the background.
The target of another series is EPHB2 (UniProt P29323). The description is as above.
For a further series, the target named is EPHB1 (UniProt P54762). The description is as above.
In the next series the target is FGFR3 (UniProt P22607). The description is as above.
For a further series, the target named is Jak2 (UniProt O60674). The description is as above.
In the next series the target is MERTK (UniProt Q12866). The series is described as above.
Another series deals with c-Abl (mouse). Described as above.
The next series addresses Fes (UniProt P07332). Described as above.
A further series has as its target FGFR1 (UniProt P11362). The description is as above.
Another series concerns the target Fyn (UniProt P06241). Described as above.
Another series relates to c-Src. The series is described as above.
The next series concerns the target Hck (UniProt P08631). Described as above.
The next series has as its system Fer (mouse). The description is as above.
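Throughout, for SH2 binding enrichment of the phosphorylated peptide, bacterial display: peptide library displayed on the E. coli surface as eCPX fusions, selected cells deep-sequenced, score is each peptide's frequency after selection divided by its frequency in the input.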
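Throughout, for phosphorylation enrichment, bacterial display: 11-residue human phosphosite peptides and single-mutation variants displayed on the E. coli surface, counted by deep sequencing, each peptide's frequency after selection divided by its frequency in the unselected input library; frequency after pTyr selection over input frequency; kinase dosed for 20-30% of maximal phosphorylation in three min.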

Chain of Jak2 (O60674 whole entry, looked up): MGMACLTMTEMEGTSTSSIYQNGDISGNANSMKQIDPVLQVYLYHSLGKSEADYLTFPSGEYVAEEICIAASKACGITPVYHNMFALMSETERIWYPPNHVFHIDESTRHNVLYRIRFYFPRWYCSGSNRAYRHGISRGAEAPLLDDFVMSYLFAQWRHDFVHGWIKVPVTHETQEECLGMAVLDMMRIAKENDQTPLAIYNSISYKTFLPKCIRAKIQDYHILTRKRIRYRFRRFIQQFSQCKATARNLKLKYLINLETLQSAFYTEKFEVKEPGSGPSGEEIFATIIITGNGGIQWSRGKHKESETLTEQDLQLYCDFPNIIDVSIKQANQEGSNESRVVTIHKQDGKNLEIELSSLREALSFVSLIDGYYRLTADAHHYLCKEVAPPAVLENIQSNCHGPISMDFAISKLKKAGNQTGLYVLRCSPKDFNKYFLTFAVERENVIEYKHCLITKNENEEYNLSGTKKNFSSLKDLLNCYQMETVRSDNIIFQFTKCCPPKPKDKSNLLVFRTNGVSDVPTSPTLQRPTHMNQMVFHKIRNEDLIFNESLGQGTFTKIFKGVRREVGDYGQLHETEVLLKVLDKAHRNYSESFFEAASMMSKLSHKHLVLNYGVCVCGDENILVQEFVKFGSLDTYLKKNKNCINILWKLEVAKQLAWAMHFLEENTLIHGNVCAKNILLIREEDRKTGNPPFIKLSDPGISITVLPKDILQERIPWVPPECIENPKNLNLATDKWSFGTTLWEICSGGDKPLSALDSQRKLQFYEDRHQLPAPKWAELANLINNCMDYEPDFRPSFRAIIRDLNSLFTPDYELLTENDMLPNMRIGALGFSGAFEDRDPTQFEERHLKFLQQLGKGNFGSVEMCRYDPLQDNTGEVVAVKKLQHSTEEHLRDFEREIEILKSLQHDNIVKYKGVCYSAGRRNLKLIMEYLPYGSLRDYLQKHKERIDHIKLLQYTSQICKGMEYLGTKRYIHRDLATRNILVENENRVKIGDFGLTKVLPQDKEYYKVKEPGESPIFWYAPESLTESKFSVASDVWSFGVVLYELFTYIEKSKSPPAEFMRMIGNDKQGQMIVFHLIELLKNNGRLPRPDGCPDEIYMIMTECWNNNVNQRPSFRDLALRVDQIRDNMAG
Chain of FGFR1 (P11362 whole entry, looked up): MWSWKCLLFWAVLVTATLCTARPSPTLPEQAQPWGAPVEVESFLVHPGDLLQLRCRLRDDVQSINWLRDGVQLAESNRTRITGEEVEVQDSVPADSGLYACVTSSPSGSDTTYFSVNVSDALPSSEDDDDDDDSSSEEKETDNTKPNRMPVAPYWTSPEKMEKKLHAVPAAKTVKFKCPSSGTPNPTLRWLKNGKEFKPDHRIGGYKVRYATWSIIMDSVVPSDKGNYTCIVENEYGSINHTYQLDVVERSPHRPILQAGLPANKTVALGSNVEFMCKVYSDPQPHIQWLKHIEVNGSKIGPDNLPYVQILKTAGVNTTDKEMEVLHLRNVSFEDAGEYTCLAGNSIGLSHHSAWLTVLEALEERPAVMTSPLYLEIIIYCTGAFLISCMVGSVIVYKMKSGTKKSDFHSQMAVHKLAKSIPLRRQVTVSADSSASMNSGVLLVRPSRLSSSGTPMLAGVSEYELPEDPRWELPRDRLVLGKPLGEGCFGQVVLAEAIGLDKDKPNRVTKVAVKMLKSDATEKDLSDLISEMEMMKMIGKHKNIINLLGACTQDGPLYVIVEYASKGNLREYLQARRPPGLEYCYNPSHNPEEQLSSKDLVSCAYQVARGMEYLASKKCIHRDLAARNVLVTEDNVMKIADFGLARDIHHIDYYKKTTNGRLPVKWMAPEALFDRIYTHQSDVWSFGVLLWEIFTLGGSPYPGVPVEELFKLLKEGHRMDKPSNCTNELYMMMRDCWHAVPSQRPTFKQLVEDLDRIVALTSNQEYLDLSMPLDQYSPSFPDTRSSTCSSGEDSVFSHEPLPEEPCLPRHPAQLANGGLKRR
Chain of FGFR3 (P22607 whole entry, looked up): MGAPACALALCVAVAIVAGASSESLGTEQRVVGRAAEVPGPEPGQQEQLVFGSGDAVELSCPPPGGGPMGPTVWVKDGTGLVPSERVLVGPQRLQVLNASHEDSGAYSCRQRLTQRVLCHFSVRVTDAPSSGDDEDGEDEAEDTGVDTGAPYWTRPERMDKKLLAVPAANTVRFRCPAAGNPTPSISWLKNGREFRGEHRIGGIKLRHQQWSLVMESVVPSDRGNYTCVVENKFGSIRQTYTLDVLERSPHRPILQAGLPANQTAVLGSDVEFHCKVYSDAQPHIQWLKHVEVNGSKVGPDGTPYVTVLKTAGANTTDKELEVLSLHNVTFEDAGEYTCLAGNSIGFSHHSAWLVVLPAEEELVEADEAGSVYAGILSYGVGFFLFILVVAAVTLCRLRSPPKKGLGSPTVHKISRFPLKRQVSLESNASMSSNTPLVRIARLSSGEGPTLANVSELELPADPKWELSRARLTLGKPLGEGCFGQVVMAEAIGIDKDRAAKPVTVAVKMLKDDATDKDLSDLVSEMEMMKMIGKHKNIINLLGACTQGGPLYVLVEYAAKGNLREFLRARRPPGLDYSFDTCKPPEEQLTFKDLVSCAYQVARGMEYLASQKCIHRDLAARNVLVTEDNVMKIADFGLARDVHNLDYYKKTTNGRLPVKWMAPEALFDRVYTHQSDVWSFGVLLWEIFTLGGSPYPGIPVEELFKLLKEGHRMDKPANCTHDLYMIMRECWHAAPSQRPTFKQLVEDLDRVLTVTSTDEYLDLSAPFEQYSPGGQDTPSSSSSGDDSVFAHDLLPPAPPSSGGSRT
Chain of EPHB2 (P29323 whole entry, looked up): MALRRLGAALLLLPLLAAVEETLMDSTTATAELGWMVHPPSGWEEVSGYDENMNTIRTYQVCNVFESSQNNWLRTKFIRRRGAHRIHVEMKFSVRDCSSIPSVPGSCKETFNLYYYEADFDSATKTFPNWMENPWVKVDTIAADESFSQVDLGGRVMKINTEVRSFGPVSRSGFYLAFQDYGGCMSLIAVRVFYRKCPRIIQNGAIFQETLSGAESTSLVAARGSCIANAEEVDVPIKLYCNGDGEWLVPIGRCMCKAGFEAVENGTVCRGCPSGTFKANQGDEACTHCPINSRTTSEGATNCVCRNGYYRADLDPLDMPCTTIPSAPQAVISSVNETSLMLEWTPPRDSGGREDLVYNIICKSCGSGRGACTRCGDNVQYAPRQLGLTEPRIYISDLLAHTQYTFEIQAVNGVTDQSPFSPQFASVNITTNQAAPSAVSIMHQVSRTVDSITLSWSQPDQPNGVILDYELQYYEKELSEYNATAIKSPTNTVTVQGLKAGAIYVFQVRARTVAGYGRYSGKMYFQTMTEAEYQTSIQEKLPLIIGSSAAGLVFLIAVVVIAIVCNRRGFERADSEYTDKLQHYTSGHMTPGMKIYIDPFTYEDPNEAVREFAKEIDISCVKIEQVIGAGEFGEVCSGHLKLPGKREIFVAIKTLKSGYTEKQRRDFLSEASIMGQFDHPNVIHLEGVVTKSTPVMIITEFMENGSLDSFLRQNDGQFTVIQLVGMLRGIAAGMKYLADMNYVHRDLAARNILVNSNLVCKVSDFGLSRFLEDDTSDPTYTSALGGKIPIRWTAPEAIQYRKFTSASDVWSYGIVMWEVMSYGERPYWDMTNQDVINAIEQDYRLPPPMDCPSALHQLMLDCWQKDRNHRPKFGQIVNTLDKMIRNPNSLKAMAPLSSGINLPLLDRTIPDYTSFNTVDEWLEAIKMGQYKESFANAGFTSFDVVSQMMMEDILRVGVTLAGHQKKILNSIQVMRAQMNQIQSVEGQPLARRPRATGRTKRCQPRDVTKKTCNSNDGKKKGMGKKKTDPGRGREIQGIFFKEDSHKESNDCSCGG
Chain of EPHB1 (P54762 whole entry, looked up): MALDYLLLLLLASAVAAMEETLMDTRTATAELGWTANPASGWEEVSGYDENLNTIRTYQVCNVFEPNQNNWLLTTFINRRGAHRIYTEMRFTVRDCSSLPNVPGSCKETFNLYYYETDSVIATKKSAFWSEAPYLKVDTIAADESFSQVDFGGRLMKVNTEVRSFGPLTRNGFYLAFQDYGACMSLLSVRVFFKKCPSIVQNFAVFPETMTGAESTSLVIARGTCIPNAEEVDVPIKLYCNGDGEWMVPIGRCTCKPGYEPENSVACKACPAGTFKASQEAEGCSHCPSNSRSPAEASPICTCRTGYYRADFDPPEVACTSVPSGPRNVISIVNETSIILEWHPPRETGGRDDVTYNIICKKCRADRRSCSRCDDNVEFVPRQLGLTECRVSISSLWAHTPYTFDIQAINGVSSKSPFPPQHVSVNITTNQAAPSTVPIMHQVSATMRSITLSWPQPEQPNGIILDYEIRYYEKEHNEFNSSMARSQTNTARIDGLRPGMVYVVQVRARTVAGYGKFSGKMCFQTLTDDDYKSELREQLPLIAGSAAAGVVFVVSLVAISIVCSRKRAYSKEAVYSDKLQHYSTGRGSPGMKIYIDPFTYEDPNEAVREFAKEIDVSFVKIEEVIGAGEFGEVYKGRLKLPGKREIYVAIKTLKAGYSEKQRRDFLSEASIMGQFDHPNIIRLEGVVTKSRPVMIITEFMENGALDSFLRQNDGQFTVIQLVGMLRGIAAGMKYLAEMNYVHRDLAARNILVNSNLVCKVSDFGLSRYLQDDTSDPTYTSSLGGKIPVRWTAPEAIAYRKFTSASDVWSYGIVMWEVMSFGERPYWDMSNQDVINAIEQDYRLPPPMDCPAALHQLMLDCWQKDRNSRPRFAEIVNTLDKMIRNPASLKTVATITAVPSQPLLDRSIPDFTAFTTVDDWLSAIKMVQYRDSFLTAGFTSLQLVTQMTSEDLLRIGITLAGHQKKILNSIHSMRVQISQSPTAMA
Chain of Grb2 SH2 (P62993 whole entry, looked up): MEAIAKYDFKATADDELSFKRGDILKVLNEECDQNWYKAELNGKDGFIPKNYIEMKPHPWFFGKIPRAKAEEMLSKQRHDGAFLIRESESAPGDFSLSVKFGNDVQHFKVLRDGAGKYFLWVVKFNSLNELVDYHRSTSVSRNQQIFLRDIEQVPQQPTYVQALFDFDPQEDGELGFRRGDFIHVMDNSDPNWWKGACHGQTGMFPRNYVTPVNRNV

Regarding ALIKAYVKAVA [SMN1_Y43_D44V], the SH2 binding enrichment worked out at 0.676 in the series with SHP2-C SH2, 0.412 with c-Src SH2 and 0.756 with Grb2 SH2. Moreover, the phosphorylation enrichment with AncSZ stood at 0.966; in the series with EPHB2 it was 0.534; with EPHB1, 0.65; with FGFR3, 0.639; in the series with Jak2, 1.12; with MERTK, 0.481. Further, the phosphorylation enrichment stood at 0.68 with c-Abl (mouse); 0.995 with Fes; 0.623 with FGFR1; 0.462 with Fyn; 0.557 in the series on c-Src; 0.464 in the series with Hck. Also, in the series on Fer (mouse), the phosphorylation enrichment is 0.445.

In the case of RFMELYDLNRD [BBS2_Y648_YF], the results for the SH2 binding enrichment with SHP2-C SH2, in the series with c-Src SH2 and with Grb2 SH2 were 1.06, 0.563 and 1.02, respectively. The phosphorylation enrichment in the series with AncSZ was 1.28; in the series with EPHB2, 0.812; with EPHB1, 0.61; with FGFR3, 0.883; with Jak2, 0.909; in the series with MERTK it was 0.459. The phosphorylation enrichment came to 0.556 with c-Abl (mouse); 1.28 with Fes; 0.762 with FGFR1; 1.25 in the series with Fyn; 2.04 in the series on c-Src; 1.14 with Hck. Moreover, the phosphorylation enrichment in the series on Fer (mouse) turned out to be 0.703.

As for SQQTFCRVSNM [ABCD1_Y181_Y181C_YF], the figures for the SH2 binding enrichment with SHP2-C SH2, in the series with c-Src SH2 and with Grb2 SH2 were 0.713, 0.502 and 0.808, respectively. For the same sequence, the phosphorylation enrichment with AncSZ amounted to 0.636; with EPHB2, 0.515; with EPHB1 it was 0.461; with FGFR3, 0.615; with Jak2, 0.554; in the series with MERTK it was 0.412. The phosphorylation enrichment is 0.567 with c-Abl (mouse); 0.679 with Fes; 0.446 in the series with FGFR1; 0.453 in the series with Fyn; 0.411 in the series with c-Src; 0.5 with Hck. For the same sequence, the phosphorylation enrichment in the series on Fer (mouse) worked out at 0.408.

Turning to IEDPYYGNDSD [ACP1_Y133], the results for the SH2 binding enrichment with SHP2-C SH2, in the series with c-Src SH2 and with Grb2 SH2 were 0.709, 0.623 and 1.07, respectively. Moreover, the phosphorylation enrichment in the series with AncSZ came out at 1.5; in the series with EPHB2, 0.809; with EPHB1, 0.638; in the series with FGFR3 it was 1.09; with Jak2, 1.35; with MERTK, 0.45. Moreover, the phosphorylation enrichment in the series with c-Abl (mouse) was determined as 0.83; in the series with Fes it was 1.39; with FGFR1 it was 0.807; with Fyn, 0.81; with c-Src, 1.6; in the series with Hck, 0.759. Besides, the phosphorylation enrichment in the series with Fer (mouse) stood at 0.548.

Turning to FRKNIYNVKST [SYNE2_Y575_YF], the SH2 binding enrichment in the series with SHP2-C SH2 turned out to be 0.927; with c-Src SH2, 0.723; with Grb2 SH2 it was 1.18. The phosphorylation enrichment was 0.469 in the series with AncSZ; 0.378 with EPHB2; 0.385 with EPHB1; 0.355 in the series with FGFR3; 0.384 in the series with Jak2; 0.335 in the series with MERTK. The phosphorylation enrichment was determined as 0.39 in the series with c-Abl (mouse); 0.439 with Fes; 0.357 with FGFR1; 0.398 with Fyn; 0.355 in the series with c-Src; 0.251 in the series with Hck. For the same sequence, the phosphorylation enrichment in the series on Fer (mouse) is 0.348.

Take LDFPEYNGVDR [CASQ1_Y43_D44N]: the SH2 binding enrichment with SHP2-C SH2 was determined as 0.646; in the series with c-Src SH2, 0.975; with Grb2 SH2, 0.541. Also, the phosphorylation enrichment in the series on AncSZ came out at 2.84; with EPHB2, 1.04; with EPHB1 it was 1.09; with FGFR3, 1.61; with Jak2, 3.51; in the series with MERTK, 2.17. Moreover, the phosphorylation enrichment amounted to 1.95 in the series on c-Abl (mouse); 3.29 with Fes; 0.986 with FGFR1; 1.43 in the series with Fyn; 2.17 in the series with c-Src; 1.16 with Hck. In addition, in the series with Fer (mouse), the phosphorylation enrichment worked out at 1.

As to FKIFLYTLNDN [FN1_Y1975_YF], the SH2 binding enrichment with SHP2-C SH2 was 0.588; with c-Src SH2, 0.428; with Grb2 SH2 it was 0.741. The phosphorylation enrichment came out at 1.3 in the series on AncSZ; 0.791 with EPHB2; 0.624 with EPHB1; 0.717 with FGFR3; 1.06 in the series with Jak2; 0.366 with MERTK. In addition, the phosphorylation enrichment in the series on c-Abl (mouse) is 0.877; with Fes, 1.35; in the series with FGFR1, 0.523; in the series with Fyn, 0.584; in the series with c-Src, 0.43; with Hck, 0.494. Besides, in the series with Fer (mouse), the phosphorylation enrichment amounted to 0.548.
